Test results published in PMC10227063 (Communications Biology, 2023).

Key:
YfkE = target: T1, YfkE (Bacillus subtilis, UniProt O34840); test: biochemical
T1 construct: gene chaA

[1] = substrate: O=P(O)(O)O; test: cells, lysate or membranes; settings: outward H+ gradient by NADH, room temperature, labelled compound
[2] = co-substrate Ca2+, residue printed R3 in table but R4 in text
[3] = co-substrate Ca2+, 5x more vesicles than WT

Row | Molecule | Km [1, 3] | Vmax [1, 3] | also measured
1 | O=P(O)(O)O [inorganic phosphate] | – | – | Kd (YfkE): 930 ± 360 µM
2 | YfkE (Bacillus subtilis subsp. subtilis str. 168) (protein) MNRIFFILVAAGVPLSVIGSLMHWPSAVLFAVYCVTIIALASYMGRATESLSIIAGPRIGGLLNATFGNAVELIISLFALKEGLTGIVLASLTGSVLGNLLLVAGLSFFVGGLKYKRQEFNIHDARHNSGLLIFAIIVAFVIPEVFSVGMGNASKLNLSIGISIIMILLYVAALYFKLVTHRGVYQPNNAAQTEEEEEPEWSGKVATIVLFAATIVVAYISENLVHTFHSVAEQFGWSELFIGVIIVAIVGNAAEHASAIIMAFKNKMDIAVEIAVGSTLQIAMFVAPVLVICSIFFPTSMPLVFTLPELVAMVSAVLLMIAISNDGDSNWFEGATLLAAYVIMAIGFFLL | – | – | Km ([1]; co-substrate Ca2+ 0.1 mM): 4.9 mM
3 | YfkE (Bacillus subtilis subsp. subtilis str. 168; R3A) (protein) MNAIFFILVAAGVPLSVIGSLMHWPSAVLFAVYCVTIIALASYMGRATESLSIIAGPRIGGLLNATFGNAVELIISLFALKEGLTGIVLASLTGSVLGNLLLVAGLSFFVGGLKYKRQEFNIHDARHNSGLLIFAIIVAFVIPEVFSVGMGNASKLNLSIGISIIMILLYVAALYFKLVTHRGVYQPNNAAQTEEEEEPEWSGKVATIVLFAATIVVAYISENLVHTFHSVAEQFGWSELFIGVIIVAIVGNAAEHASAIIMAFKNKMDIAVEIAVGSTLQIAMFVAPVLVICSIFFPTSMPLVFTLPELVAMVSAVLLMIAISNDGDSNWFEGATLLAAYVIMAIGFFLL | – | – | Km [1, 2]: 5.5 mM; Vmax [1, 2]: 7.5e-05 µmol/min/mg
4 | YfkE (Bacillus subtilis subsp. subtilis str. 168; H256A) (protein) MNRIFFILVAAGVPLSVIGSLMHWPSAVLFAVYCVTIIALASYMGRATESLSIIAGPRIGGLLNATFGNAVELIISLFALKEGLTGIVLASLTGSVLGNLLLVAGLSFFVGGLKYKRQEFNIHDARHNSGLLIFAIIVAFVIPEVFSVGMGNASKLNLSIGISIIMILLYVAALYFKLVTHRGVYQPNNAAQTEEEEEPEWSGKVATIVLFAATIVVAYISENLVHTFHSVAEQFGWSELFIGVIIVAIVGNAAEAASAIIMAFKNKMDIAVEIAVGSTLQIAMFVAPVLVICSIFFPTSMPLVFTLPELVAMVSAVLLMIAISNDGDSNWFEGATLLAAYVIMAIGFFLL | 34.2 mM | 5.1e-05 µmol/min/mg | –
5 | YfkE (Bacillus subtilis subsp. subtilis str. 168; N252A) (protein) MNRIFFILVAAGVPLSVIGSLMHWPSAVLFAVYCVTIIALASYMGRATESLSIIAGPRIGGLLNATFGNAVELIISLFALKEGLTGIVLASLTGSVLGNLLLVAGLSFFVGGLKYKRQEFNIHDARHNSGLLIFAIIVAFVIPEVFSVGMGNASKLNLSIGISIIMILLYVAALYFKLVTHRGVYQPNNAAQTEEEEEPEWSGKVATIVLFAATIVVAYISENLVHTFHSVAEQFGWSELFIGVIIVAIVGAAAEHASAIIMAFKNKMDIAVEIAVGSTLQIAMFVAPVLVICSIFFPTSMPLVFTLPELVAMVSAVLLMIAISNDGDSNWFEGATLLAAYVIMAIGFFLL | 8.2 mM | 1.9e-05 µmol/min/mg | –
6 | YfkE (Bacillus subtilis subsp. subtilis str. 168; N99A) (protein) MNRIFFILVAAGVPLSVIGSLMHWPSAVLFAVYCVTIIALASYMGRATESLSIIAGPRIGGLLNATFGNAVELIISLFALKEGLTGIVLASLTGSVLGALLLVAGLSFFVGGLKYKRQEFNIHDARHNSGLLIFAIIVAFVIPEVFSVGMGNASKLNLSIGISIIMILLYVAALYFKLVTHRGVYQPNNAAQTEEEEEPEWSGKVATIVLFAATIVVAYISENLVHTFHSVAEQFGWSELFIGVIIVAIVGNAAEHASAIIMAFKNKMDIAVEIAVGSTLQIAMFVAPVLVICSIFFPTSMPLVFTLPELVAMVSAVLLMIAISNDGDSNWFEGATLLAAYVIMAIGFFLL | 12.4 mM | 3.9e-05 µmol/min/mg | –
7 | YfkE (Bacillus subtilis subsp. subtilis str. 168; Q281A) (protein) MNRIFFILVAAGVPLSVIGSLMHWPSAVLFAVYCVTIIALASYMGRATESLSIIAGPRIGGLLNATFGNAVELIISLFALKEGLTGIVLASLTGSVLGNLLLVAGLSFFVGGLKYKRQEFNIHDARHNSGLLIFAIIVAFVIPEVFSVGMGNASKLNLSIGISIIMILLYVAALYFKLVTHRGVYQPNNAAQTEEEEEPEWSGKVATIVLFAATIVVAYISENLVHTFHSVAEQFGWSELFIGVIIVAIVGNAAEHASAIIMAFKNKMDIAVEIAVGSTLAIAMFVAPVLVICSIFFPTSMPLVFTLPELVAMVSAVLLMIAISNDGDSNWFEGATLLAAYVIMAIGFFLL | 29.9 mM | 1.9e-05 µmol/min/mg | –
